Assay in all cases: SPR
One test concerns the target T1, cynomolgus HER2 (cynomolgus monkey).
T1 chain: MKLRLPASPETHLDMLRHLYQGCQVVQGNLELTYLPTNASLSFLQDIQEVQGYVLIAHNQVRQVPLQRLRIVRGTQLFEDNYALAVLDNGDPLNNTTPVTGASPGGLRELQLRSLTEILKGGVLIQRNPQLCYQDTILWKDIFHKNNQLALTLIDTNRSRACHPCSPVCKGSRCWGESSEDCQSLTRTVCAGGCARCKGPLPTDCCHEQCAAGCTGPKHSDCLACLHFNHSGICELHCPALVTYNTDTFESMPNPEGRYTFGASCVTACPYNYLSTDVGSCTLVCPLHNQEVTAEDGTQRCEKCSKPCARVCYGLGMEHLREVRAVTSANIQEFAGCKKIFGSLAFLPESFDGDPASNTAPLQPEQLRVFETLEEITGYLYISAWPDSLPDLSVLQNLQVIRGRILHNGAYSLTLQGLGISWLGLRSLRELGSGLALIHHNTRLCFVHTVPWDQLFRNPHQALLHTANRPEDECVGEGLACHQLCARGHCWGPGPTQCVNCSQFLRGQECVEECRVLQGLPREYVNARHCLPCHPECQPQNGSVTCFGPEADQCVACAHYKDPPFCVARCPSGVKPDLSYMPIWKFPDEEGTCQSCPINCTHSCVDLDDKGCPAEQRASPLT

A further test addresses human HER2 (human, UniProt P04626).
The next test has as its target human CD137 (human, UniProt Q07011).
The target of another test is T2, cynomolgus CD137 (cynomolgus monkey).
T2 chain: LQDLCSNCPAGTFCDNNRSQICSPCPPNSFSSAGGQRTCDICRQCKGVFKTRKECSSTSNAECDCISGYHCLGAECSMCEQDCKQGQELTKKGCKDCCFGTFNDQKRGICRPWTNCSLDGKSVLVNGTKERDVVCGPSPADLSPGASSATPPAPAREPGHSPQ

Where a chain is given by its changes, count along the chain named.

human CD137, sequence (Q07011 24-186): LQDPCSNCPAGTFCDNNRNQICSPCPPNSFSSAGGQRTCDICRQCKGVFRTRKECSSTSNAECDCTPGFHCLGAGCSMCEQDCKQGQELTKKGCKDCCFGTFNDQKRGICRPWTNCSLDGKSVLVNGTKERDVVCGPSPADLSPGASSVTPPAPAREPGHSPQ

B1: DART-B (HER2 arm) (antibody, V domains shown)
VH: QVQLVQSGAEVKKPGASVKVSCKASGYTFTNYGMNWVRQAPGQGLEWMGWINTNIGEPTYTEEFKGRVTMTRDTSISTAYMELSRLRSDDTAVYYCARDDGYGNRVSYWGQGTLVTVSS
VL: DIQMTQSPSSLSASVGDRVTITCKASQDISNYLSWFQQKPGKAPKTLIYRANRLQSGVPSRFSGSGSGTDFTLTISSLQPEDFATYYCLQHDEFPWTFGQGTKLEIK
Take B1: the Kd with cynomolgus HER2 was 0.66 nM; with human HER2 it was 0.38 nM.

B2: DART-G4 (CD137 arm) (antibody, V domains shown)
VH: QVQLVQSGAEVKKPGASVKVSCKASGYTFTSYWINWVKQAPGQGLEWIGNIYPSDSYTNYNQKFKDKATITADKSTSTAYMELSSLRSEDTAVYYCTRDYGSSYSYNVWGQGTTVTVSS
VL: DIQMTQSPSSLSASVGDRVTITCRPSQDISNYLNWYQQKPDKTVKLLIYYTSRLRSGVPSRFSGSGSGTDFTFTISSLQPEDIATYFCQQGDTLPYTFGQGTKLEIK
In the case of B2, the Kd in the test with human CD137 came to 28 nM; in the test with cynomolgus CD137 it was 40 nM.

B3: DART-G3 (CD137 arm) (antibody, V domains shown)
VH: B2 VH with S103A, N107S, V108L
VL: B2 VL
Consider B3, for which the Kd with human CD137 amounted to 64 nM; with cynomolgus CD137, 78 nM.

B4: DART-G2 (CD137 arm) (antibody, V domains shown)
VH: B2 VH with S103A, Y106M, N107S, V108T
VL: B2 VL
Regarding B4, the results for the Kd with human CD137 and with cynomolgus CD137 were 60 nM and 64 nM, respectively.

B5: DART-G (CD137 arm) (antibody, V domains shown)
VH: B2 VH with Y106F, N107D, V108Y
VL: B2 VL
In the case of B5, the results for the Kd with human CD137 and with cynomolgus CD137 were 114 nM and 115 nM, respectively.

B6: DART-D (CD137 arm) (antibody, V domains shown)
VH: QVQLQQPGAELVRPGASVKLSCKASGYTFTSYWINWVKQRPGQGLEWIGNIYPSDSYTNYNQKFKDKATLTVDKSSSTAYMQLSSPTSEDSAVYYCTRDYGSSYSFDYWGQGTTLTVSS
VL: DIQMTQTTSSLSASLGDRVTISCRPSQDISNYLNWYQQKPDGTVKLLIYYTSRLRSGVPSRFSGSGSGTDYSLTISNLEQEDIATYFCQQGDTLPYTFGGGTKLEIK
As for B6, the figures for the Kd with human CD137 and with cynomolgus CD137 were 53 nM and 67 nM, respectively.
